Test results reported in US20230235013A1 (MABSOLVE, published 2023).

B1: anti-CD20 human IgG1 L234E/L235K/G236R (antibody)
heavy: QVQLQQPGAELVKPGASVKMSCKASGYTFTSYNMHWVKQTPGRGLEWIGAIYPGNGDTSYNQKFKGKATLTADKSSSTAYMQLSSLTSEDSAVYYCARSTYYGGDWYFNVWGAGTTVTVSSASTKGPSVFPLAPSSKSTSGGTAALGCLVKDYFPEPVTVSWNSGALTSGVHTFPAVLQSSGLYSLSSVVTVPSSSLGTQTYICNVNHKPSNTKVDKKVEPKSCDKTHTCPPCPAPEEKRGPSVFLFPPKPKDTLMISRTPEVTCVVVDVSHEDPEVKFNWYVDGVEVHNAKTKPREEQYNSTYRVVSVLTVLHQDWLNGKEYKCKVSNKALPAPIEKTISKAKGQPREPQVYTLPPSRDELTKNQVSLTCLVKGFYPSDIAVEWESNGQPENNYKTTPPVLDSDGSFFLYSKLTVDKSRWQQGNVFSCSVMHEALHNHYTQKSLSLSPGK
light: QIVLSQSPAILSASPGEKVTMTCRASSSVSYIHWFQQKPGSSPKPWIYATSNLASGVPVRFSGSGSGTSYSLTISRVEAEDAATYYCQQWTSNPPTFGGGTKLEIKRTVAAPSVFIFPPSDEQLKSGTASVVCLLNNFYPREAKVQWKVDNALQSGNSQESVTEQDSKDSTYSLSSTLTLSKADYEKHKVYACEVTHQGLSSPVTKSFNRGEC
notes: also called 1-38; copies: 2 + 2
B2: anti-CD20 human IgG1 L234E/L235Q/G236R (antibody)
heavy: QVQLQQPGAELVKPGASVKMSCKASGYTFTSYNMHWVKQTPGRGLEWIGAIYPGNGDTSYNQKFKGKATLTADKSSSTAYMQLSSLTSEDSAVYYCARSTYYGGDWYFNVWGAGTTVTVSSASTKGPSVFPLAPSSKSTSGGTAALGCLVKDYFPEPVTVSWNSGALTSGVHTFPAVLQSSGLYSLSSVVTVPSSSLGTQTYICNVNHKPSNTKVDKKVEPKSCDKTHTCPPCPAPEEQRGPSVFLFPPKPKDTLMISRTPEVTCVVVDVSHEDPEVKFNWYVDGVEVHNAKTKPREEQYNSTYRVVSVLTVLHQDWLNGKEYKCKVSNKALPAPIEKTISKAKGQPREPQVYTLPPSRDELTKNQVSLTCLVKGFYPSDIAVEWESNGQPENNYKTTPPVLDSDGSFFLYSKLTVDKSRWQQGNVFSCSVMHEALHNHYTQKSLSLSPGK
light: QIVLSQSPAILSASPGEKVTMTCRASSSVSYIHWFQQKPGSSPKPWIYATSNLASGVPVRFSGSGSGTSYSLTISRVEAEDAATYYCQQWTSNPPTFGGGTKLEIKRTVAAPSVFIFPPSDEQLKSGTASVVCLLNNFYPREAKVQWKVDNALQSGNSQESVTEQDSKDSTYSLSSTLTLSKADYEKHKVYACEVTHQGLSSPVTKSFNRGEC
notes: also called 1-42; copies: 2 + 2
B3: anti-CD20 human IgG1 L234E/L235R/G236R (antibody)
heavy: QVQLQQPGAELVKPGASVKMSCKASGYTFTSYNMHWVKQTPGRGLEWIGAIYPGNGDTSYNQKFKGKATLTADKSSSTAYMQLSSLTSEDSAVYYCARSTYYGGDWYFNVWGAGTTVTVSSASTKGPSVFPLAPSSKSTSGGTAALGCLVKDYFPEPVTVSWNSGALTSGVHTFPAVLQSSGLYSLSSVVTVPSSSLGTQTYICNVNHKPSNTKVDKKVEPKSCDKTHTCPPCPAPEERRGPSVFLFPPKPKDTLMISRTPEVTCVVVDVSHEDPEVKFNWYVDGVEVHNAKTKPREEQYNSTYRVVSVLTVLHQDWLNGKEYKCKVSNKALPAPIEKTISKAKGQPREPQVYTLPPSRDELTKNQVSLTCLVKGFYPSDIAVEWESNGQPENNYKTTPPVLDSDGSFFLYSKLTVDKSRWQQGNVFSCSVMHEALHNHYTQKSLSLSPGK
light: QIVLSQSPAILSASPGEKVTMTCRASSSVSYIHWFQQKPGSSPKPWIYATSNLASGVPVRFSGSGSGTSYSLTISRVEAEDAATYYCQQWTSNPPTFGGGTKLEIKRTVAAPSVFIFPPSDEQLKSGTASVVCLLNNFYPREAKVQWKVDNALQSGNSQESVTEQDSKDSTYSLSSTLTLSKADYEKHKVYACEVTHQGLSSPVTKSFNRGEC
notes: also called 1-43; copies: 2 + 2
B4: anti-CD20 human IgG1 L234E/L235S/G236R (antibody)
heavy: QVQLQQPGAELVKPGASVKMSCKASGYTFTSYNMHWVKQTPGRGLEWIGAIYPGNGDTSYNQKFKGKATLTADKSSSTAYMQLSSLTSEDSAVYYCARSTYYGGDWYFNVWGAGTTVTVSSASTKGPSVFPLAPSSKSTSGGTAALGCLVKDYFPEPVTVSWNSGALTSGVHTFPAVLQSSGLYSLSSVVTVPSSSLGTQTYICNVNHKPSNTKVDKKVEPKSCDKTHTCPPCPAPEESRGPSVFLFPPKPKDTLMISRTPEVTCVVVDVSHEDPEVKFNWYVDGVEVHNAKTKPREEQYNSTYRVVSVLTVLHQDWLNGKEYKCKVSNKALPAPIEKTISKAKGQPREPQVYTLPPSRDELTKNQVSLTCLVKGFYPSDIAVEWESNGQPENNYKTTPPVLDSDGSFFLYSKLTVDKSRWQQGNVFSCSVMHEALHNHYTQKSLSLSPGK
light: QIVLSQSPAILSASPGEKVTMTCRASSSVSYIHWFQQKPGSSPKPWIYATSNLASGVPVRFSGSGSGTSYSLTISRVEAEDAATYYCQQWTSNPPTFGGGTKLEIKRTVAAPSVFIFPPSDEQLKSGTASVVCLLNNFYPREAKVQWKVDNALQSGNSQESVTEQDSKDSTYSLSSTLTLSKADYEKHKVYACEVTHQGLSSPVTKSFNRGEC
notes: also called 1-44; copies: 2 + 2
B5: anti-CD20 human IgG1 L234E/L235T/G236R (antibody)
heavy: QVQLQQPGAELVKPGASVKMSCKASGYTFTSYNMHWVKQTPGRGLEWIGAIYPGNGDTSYNQKFKGKATLTADKSSSTAYMQLSSLTSEDSAVYYCARSTYYGGDWYFNVWGAGTTVTVSSASTKGPSVFPLAPSSKSTSGGTAALGCLVKDYFPEPVTVSWNSGALTSGVHTFPAVLQSSGLYSLSSVVTVPSSSLGTQTYICNVNHKPSNTKVDKKVEPKSCDKTHTCPPCPAPEETRGPSVFLFPPKPKDTLMISRTPEVTCVVVDVSHEDPEVKFNWYVDGVEVHNAKTKPREEQYNSTYRVVSVLTVLHQDWLNGKEYKCKVSNKALPAPIEKTISKAKGQPREPQVYTLPPSRDELTKNQVSLTCLVKGFYPSDIAVEWESNGQPENNYKTTPPVLDSDGSFFLYSKLTVDKSRWQQGNVFSCSVMHEALHNHYTQKSLSLSPGK
light: QIVLSQSPAILSASPGEKVTMTCRASSSVSYIHWFQQKPGSSPKPWIYATSNLASGVPVRFSGSGSGTSYSLTISRVEAEDAATYYCQQWTSNPPTFGGGTKLEIKRTVAAPSVFIFPPSDEQLKSGTASVVCLLNNFYPREAKVQWKVDNALQSGNSQESVTEQDSKDSTYSLSSTLTLSKADYEKHKVYACEVTHQGLSSPVTKSFNRGEC
notes: also called 1-45; copies: 2 + 2
B6: anti-CD20 human IgG1 L234E/L235V/G236R (antibody)
heavy: QVQLQQPGAELVKPGASVKMSCKASGYTFTSYNMHWVKQTPGRGLEWIGAIYPGNGDTSYNQKFKGKATLTADKSSSTAYMQLSSLTSEDSAVYYCARSTYYGGDWYFNVWGAGTTVTVSSASTKGPSVFPLAPSSKSTSGGTAALGCLVKDYFPEPVTVSWNSGALTSGVHTFPAVLQSSGLYSLSSVVTVPSSSLGTQTYICNVNHKPSNTKVDKKVEPKSCDKTHTCPPCPAPEEVRGPSVFLFPPKPKDTLMISRTPEVTCVVVDVSHEDPEVKFNWYVDGVEVHNAKTKPREEQYNSTYRVVSVLTVLHQDWLNGKEYKCKVSNKALPAPIEKTISKAKGQPREPQVYTLPPSRDELTKNQVSLTCLVKGFYPSDIAVEWESNGQPENNYKTTPPVLDSDGSFFLYSKLTVDKSRWQQGNVFSCSVMHEALHNHYTQKSLSLSPGK
light: QIVLSQSPAILSASPGEKVTMTCRASSSVSYIHWFQQKPGSSPKPWIYATSNLASGVPVRFSGSGSGTSYSLTISRVEAEDAATYYCQQWTSNPPTFGGGTKLEIKRTVAAPSVFIFPPSDEQLKSGTASVVCLLNNFYPREAKVQWKVDNALQSGNSQESVTEQDSKDSTYSLSSTLTLSKADYEKHKVYACEVTHQGLSSPVTKSFNRGEC
notes: also called 1-46; 2-16; copies: 2 + 2
B7: anti-CD20 human IgG1 L234G/G236R (antibody)
heavy: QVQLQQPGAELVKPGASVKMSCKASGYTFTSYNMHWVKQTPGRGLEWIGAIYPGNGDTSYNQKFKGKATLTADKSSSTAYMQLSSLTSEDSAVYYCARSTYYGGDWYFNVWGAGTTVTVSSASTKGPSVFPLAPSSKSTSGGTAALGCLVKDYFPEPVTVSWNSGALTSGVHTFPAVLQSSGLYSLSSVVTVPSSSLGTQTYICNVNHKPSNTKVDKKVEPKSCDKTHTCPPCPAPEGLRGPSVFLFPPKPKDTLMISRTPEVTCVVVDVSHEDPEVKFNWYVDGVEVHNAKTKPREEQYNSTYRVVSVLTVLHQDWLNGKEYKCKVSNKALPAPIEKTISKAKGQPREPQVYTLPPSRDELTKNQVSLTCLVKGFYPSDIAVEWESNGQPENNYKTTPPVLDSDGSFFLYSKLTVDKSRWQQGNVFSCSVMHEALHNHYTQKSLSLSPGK
light: QIVLSQSPAILSASPGEKVTMTCRASSSVSYIHWFQQKPGSSPKPWIYATSNLASGVPVRFSGSGSGTSYSLTISRVEAEDAATYYCQQWTSNPPTFGGGTKLEIKRTVAAPSVFIFPPSDEQLKSGTASVVCLLNNFYPREAKVQWKVDNALQSGNSQESVTEQDSKDSTYSLSSTLTLSKADYEKHKVYACEVTHQGLSSPVTKSFNRGEC
notes: also called 1-54; 2-85; copies: 2 + 2
B8: anti-CD20 human IgG1 L234G/L235A/G236R (antibody)
heavy: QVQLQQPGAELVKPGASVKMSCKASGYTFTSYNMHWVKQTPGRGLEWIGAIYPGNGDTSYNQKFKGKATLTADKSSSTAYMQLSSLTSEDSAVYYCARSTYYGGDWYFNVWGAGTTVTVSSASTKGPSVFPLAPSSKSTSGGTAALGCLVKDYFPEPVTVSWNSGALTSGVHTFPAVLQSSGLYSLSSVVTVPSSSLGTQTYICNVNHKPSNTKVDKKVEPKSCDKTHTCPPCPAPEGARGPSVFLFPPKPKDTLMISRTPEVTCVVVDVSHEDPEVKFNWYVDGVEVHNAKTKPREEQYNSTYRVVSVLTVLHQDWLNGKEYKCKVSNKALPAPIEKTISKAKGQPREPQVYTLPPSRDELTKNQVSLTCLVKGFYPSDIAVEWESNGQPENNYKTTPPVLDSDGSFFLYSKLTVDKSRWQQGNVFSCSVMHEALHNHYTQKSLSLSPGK
light: QIVLSQSPAILSASPGEKVTMTCRASSSVSYIHWFQQKPGSSPKPWIYATSNLASGVPVRFSGSGSGTSYSLTISRVEAEDAATYYCQQWTSNPPTFGGGTKLEIKRTVAAPSVFIFPPSDEQLKSGTASVVCLLNNFYPREAKVQWKVDNALQSGNSQESVTEQDSKDSTYSLSSTLTLSKADYEKHKVYACEVTHQGLSSPVTKSFNRGEC
notes: also called 1-47; copies: 2 + 2
B9: anti-CD20 human IgG1 L234G/L235D/G236R (antibody)
heavy: QVQLQQPGAELVKPGASVKMSCKASGYTFTSYNMHWVKQTPGRGLEWIGAIYPGNGDTSYNQKFKGKATLTADKSSSTAYMQLSSLTSEDSAVYYCARSTYYGGDWYFNVWGAGTTVTVSSASTKGPSVFPLAPSSKSTSGGTAALGCLVKDYFPEPVTVSWNSGALTSGVHTFPAVLQSSGLYSLSSVVTVPSSSLGTQTYICNVNHKPSNTKVDKKVEPKSCDKTHTCPPCPAPEGDRGPSVFLFPPKPKDTLMISRTPEVTCVVVDVSHEDPEVKFNWYVDGVEVHNAKTKPREEQYNSTYRVVSVLTVLHQDWLNGKEYKCKVSNKALPAPIEKTISKAKGQPREPQVYTLPPSRDELTKNQVSLTCLVKGFYPSDIAVEWESNGQPENNYKTTPPVLDSDGSFFLYSKLTVDKSRWQQGNVFSCSVMHEALHNHYTQKSLSLSPGK
light: QIVLSQSPAILSASPGEKVTMTCRASSSVSYIHWFQQKPGSSPKPWIYATSNLASGVPVRFSGSGSGTSYSLTISRVEAEDAATYYCQQWTSNPPTFGGGTKLEIKRTVAAPSVFIFPPSDEQLKSGTASVVCLLNNFYPREAKVQWKVDNALQSGNSQESVTEQDSKDSTYSLSSTLTLSKADYEKHKVYACEVTHQGLSSPVTKSFNRGEC
notes: also called 1-48; copies: 2 + 2
B10: anti-CD20 human IgG1 L234G/L235E/G236R (antibody)
heavy: QVQLQQPGAELVKPGASVKMSCKASGYTFTSYNMHWVKQTPGRGLEWIGAIYPGNGDTSYNQKFKGKATLTADKSSSTAYMQLSSLTSEDSAVYYCARSTYYGGDWYFNVWGAGTTVTVSSASTKGPSVFPLAPSSKSTSGGTAALGCLVKDYFPEPVTVSWNSGALTSGVHTFPAVLQSSGLYSLSSVVTVPSSSLGTQTYICNVNHKPSNTKVDKKVEPKSCDKTHTCPPCPAPEGERGPSVFLFPPKPKDTLMISRTPEVTCVVVDVSHEDPEVKFNWYVDGVEVHNAKTKPREEQYNSTYRVVSVLTVLHQDWLNGKEYKCKVSNKALPAPIEKTISKAKGQPREPQVYTLPPSRDELTKNQVSLTCLVKGFYPSDIAVEWESNGQPENNYKTTPPVLDSDGSFFLYSKLTVDKSRWQQGNVFSCSVMHEALHNHYTQKSLSLSPGK
light: QIVLSQSPAILSASPGEKVTMTCRASSSVSYIHWFQQKPGSSPKPWIYATSNLASGVPVRFSGSGSGTSYSLTISRVEAEDAATYYCQQWTSNPPTFGGGTKLEIKRTVAAPSVFIFPPSDEQLKSGTASVVCLLNNFYPREAKVQWKVDNALQSGNSQESVTEQDSKDSTYSLSSTLTLSKADYEKHKVYACEVTHQGLSSPVTKSFNRGEC
notes: also called 1-49; copies: 2 + 2

molecular target: T1, Histidine-tagged recombinant human FcγRI (CD64) (human, UniProt P12314 16-288); assay: SPR, culture supernatant, captured His-FcγRI;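 also: biacore T200 SPR at 25 °C, anti-His capture, supernatants of HEK293 cells expressing IgG1 Fc variants injected 1 min, reference-subtracted response read 55 s after injection start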
T1 construct: bought; also called Sino Biological Cat. No. 12056-H08H

Going from B1 to B2, the Mean binding response falls from 34.1 RU to 33.7 RU.

Going from B3 to B4, the Mean binding response rises from 26.7 RU to 39.2 RU.

Going from B5 to B6, the Mean binding response falls from 29.6 RU to 18.4 RU.

Compared with B7, B8 is lower in Mean binding response: 28.5 RU for the first, 23 RU for the second.

Compared with B9, B10 is higher in Mean binding response: 23.6 RU for the first, 31.8 RU for the second.
